Target: CagFbFP-I52T-Q148K (Chloroflexus aggregans) (UniProt B8GAY9)
Experiment: crystal structure

“CagFbFP-I52T-Q148K (from UniProt B8GAY9 47-153) (domain or fragment)” showed a stoichiometry N of 2.
